For data set [1], the target named is T1, TTF1 (thyroid transcription factor 1) (Ciona intestinalis, UniProt O96738 O96738:1-477).
T1 sequence: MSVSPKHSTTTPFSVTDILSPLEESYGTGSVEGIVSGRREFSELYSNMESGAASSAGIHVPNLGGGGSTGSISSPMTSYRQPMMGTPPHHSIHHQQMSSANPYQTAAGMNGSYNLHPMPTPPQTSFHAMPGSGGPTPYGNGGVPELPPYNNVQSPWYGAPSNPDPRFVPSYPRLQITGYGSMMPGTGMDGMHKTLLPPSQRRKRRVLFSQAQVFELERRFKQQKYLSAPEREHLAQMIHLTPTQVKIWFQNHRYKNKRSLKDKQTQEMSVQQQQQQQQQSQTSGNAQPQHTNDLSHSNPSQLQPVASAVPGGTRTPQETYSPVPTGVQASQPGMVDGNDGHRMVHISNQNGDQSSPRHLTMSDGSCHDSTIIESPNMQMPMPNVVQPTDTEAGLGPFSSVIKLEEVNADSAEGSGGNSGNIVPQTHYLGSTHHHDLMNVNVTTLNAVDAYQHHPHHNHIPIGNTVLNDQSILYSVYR
Put plainly: SPR; kinetic global fit 1:1; steady-state Kd 65.6 nM; HBS-P pH 7.5, 150 mM NaCl. Particulars: tags: N-terminal His6 plus factor Xa site (pNHis vector), E. coli; label: biotin. Here is the method: (§1) The affinity, as described by the KD, was determined by a global fit using the kinetic simultaneous kₐ/kd model, assuming Langmuir (1:1) binding.
(§2) BIAcore surface plasmon resonance. The affinity of the aptamers for their protein targets was measured using surface plasmon resonance (SPR) with a BIAcore X instrument (BIAcore, Piscataway, N.J.). Biotinylated aptamer (QIAGEN Operon, Alameda, Calif.) was diluted to 0.5 ng/μL in HBS-P (10 mM HEPES, pH 7.5, 150 mM NaCl, 0.05% Tween 20), heated to 95° C., and rapidly cooled at 4° C. before use. Approximately 100 RU of biotinylated aptamer (ligand) was immobilized to one flow cell of a streptavidin coated sensor chip. Purified TTF1 protein was diluted into HBS-P to give a series of concentrations of TTF1 protein (3, 12, 31, 62, 125, 250 nM or 2.5, 5, 10, 20, 40, 100 nM) that were injected over the surface for 2 min at a flow rate of 20 μL/min (to minimize mass transfer limitations). Bulk shift and non-specific interactions with the streptavidin were subtracted using the response from a reference flow cell. […] The affinity, as described by the equilibrium dissociation constant (KD), was determined globally by fitting to the kinetic simultaneous kₐ/kd model, assuming Langmuir (1:1) binding. The steady-state affinity was determined from curve-fitting to a plot of the Req values, derived from sensorgrams fitted locally, against the concentrations.
(Surface plasmon resonance follows binding to a sensor surface in real time, without labels.)

The target in data set [2] is XF1293 (hypothetical conserved protein) (Xylella fastidiosa, UniProt Q9PDT6 Q9PDT6:1-231). Put plainly: SPR. The note with it: tags: His6, E. coli; label: biotin.
Data set [3] concerns the target XF0749 (virulence regulator) (Xylella fastidiosa, UniProt Q9PFC9 Q9PFC9:1-134). In words: SPR. The note with it: tags: His6, E. coli; label: biotin.
Another data set concerns the target BSA (UniProt P02769 P02769:25-607). In words: ELONA; PBS-T, 4 C overnight. The note with it: label: biotin.
Data set [4] addresses T1, TTF1 (thyroid transcription factor 1). In words: SPR; kinetic global fit 1:1; steady-state Kd 5.14 nM; HBS-P pH 7.5, 150 mM NaCl. Particulars: tags: N-terminal His6 plus factor Xa site (pNHis vector), E. coli; label: biotin. The protocol: as §1, §2

BSA, sequence (P02769 25-607, one chain of several): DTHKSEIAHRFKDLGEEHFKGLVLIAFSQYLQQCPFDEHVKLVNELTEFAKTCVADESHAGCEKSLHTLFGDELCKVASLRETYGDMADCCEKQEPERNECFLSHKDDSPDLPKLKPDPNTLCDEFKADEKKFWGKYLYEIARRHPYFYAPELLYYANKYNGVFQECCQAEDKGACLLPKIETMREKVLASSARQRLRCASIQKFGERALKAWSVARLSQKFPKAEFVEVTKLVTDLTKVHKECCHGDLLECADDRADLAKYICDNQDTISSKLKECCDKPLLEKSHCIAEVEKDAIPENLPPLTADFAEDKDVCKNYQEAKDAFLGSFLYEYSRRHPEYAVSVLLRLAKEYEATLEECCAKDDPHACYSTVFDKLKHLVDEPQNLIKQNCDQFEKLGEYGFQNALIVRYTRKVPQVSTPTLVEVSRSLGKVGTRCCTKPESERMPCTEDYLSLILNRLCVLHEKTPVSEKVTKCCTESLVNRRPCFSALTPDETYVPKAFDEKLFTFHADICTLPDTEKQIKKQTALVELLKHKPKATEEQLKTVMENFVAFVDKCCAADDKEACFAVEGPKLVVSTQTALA

B1: TTF1 Aptamer C (ssDNA)
DNA: GGTATTGAGGGTCGCATCTGGCTAGTGGGTAAGGGGCGGGAGGGTGACAGGGCGATCCGATGGCTCTAACTCTCCTCT
In general, Kd refers to the free concentration of one partner at which half of the binding sites on the other are occupied at equilibrium, for simple one-to-one binding. As for B1, the Kd in data set [1] is 32.5 nM.

B2: 6H5 (ssDNA)
DNA: GGTATTGAGGGTCGCATCGGCTTCAGGTTGGTCTGGTTGGGTTTGGCTCCTGTGTACGGATGGCTCTAACTCTCCTCT
As for B2, the Kd in data set [2] came out at 30 nM.

B3: 6H7 (ssDNA)
DNA: GGTATTGAGGGTCGCATCGCTATGGGTGGTCTGGTTGGGATTGGCCCCGGGAGCTGGCGATGGCTCTAACTCTCCTCT
On to B3, for which the Kd in data set [3] was 42 nM; in data set [2], 0.4 nM.

B4: TTF1 Aptamer A (ssDNA)
DNA: GGTATTGAGGGTCGCATCTCAAAAGGGGTGATTGCTTGCACAATGACAGGGTAGGACAGATGGCTCTAACTCTCCTCT
With B4, the binding result in the data set with BSA is “no binding”. Moreover, the Kd in data set [4] came to 3.36 nM.

B5: 6H1 (ssDNA)
DNA: GGTATTGAGGGTCGCATCGGCAAAAAGGATTGCCCAGGTCTGCTGTCTAGCCGGATTCGATGGCTCTAACTCTCCTCT
B5 yielded a Kd in data set [2] of 0.08 nM.

(Values after US20050142582, “Aptamers and methods for their in vitro selection and uses thereof” (The Regents of the University of California, published 2005).)
